B1: isolated N-terminal region of BEND3 (residues 1-534) (domain or fragment, human, UniProt Q5T5X7 1-534, looked up)
chain: MNSTEFTEDVEEVLKSITVKVETEAEDAALDCSVNSRTSEKHSVDSVLTALQDSSKRKQLVSDGLLDSVPGVKRRRLIPEALLAGMRNRENSSPCQGNGEQAGRGRSLGNVWPGEEEPCNDATTPSYKKPLYGISHKIMEKKNPPSGDLLNVYELFEKANASNSPSSLRLLNEPQKRDCGSTGAGTDNDPNIYFLIQKMFYMLNTLTSNMSQLHSKVDLLSLEVSRIKKQVSPTEMVAKFQPPPEYQLTAAELKQIVDQSLSGGDLACRLLVQLFPELFSDVDFSRGCSACGFAAKRKLESLHLQLIRNYVEVYYPSVKDTAVWQAECLPQLNDFFSRFWAQREMEDSQPSGQVASFFEAEQVDPGHFLDNKDQEEALSLDRSSTIASDHVVDTQDLTEFLDEASSPGEFAVFLLHRLFPELFDHRKLGEQYSCYGDGGKQELDPQRLQIIRNYTEIYFPDMQEEEAWLQQCAQRINDELEGLGLDAGSEGDPPRDDCYDSSSLPDDISVVKVEDSFEGERPGRRSKKIWLVPI
B2: BEN domain 3 of BEND3 (domain or fragment)
chain: VPGADCLLSKEQLRSIYESSLSIGNFASRLLVHLFPELFTHENLRKQYNCSGSLGKKQLDPSRIKLIRHYVQLLYPRAKNDRVWTLEFVGKLDERCRRRDTEQ
B3: BEND3, full length (from HEK293 cells) (natural protein, human, UniProt Q5T5X7 1-828, looked up)
chain: MNSTEFTEDVEEVLKSITVKVETEAEDAALDCSVNSRTSEKHSVDSVLTALQDSSKRKQLVSDGLLDSVPGVKRRRLIPEALLAGMRNRENSSPCQGNGEQAGRGRSLGNVWPGEEEPCNDATTPSYKKPLYGISHKIMEKKNPPSGDLLNVYELFEKANASNSPSSLRLLNEPQKRDCGSTGAGTDNDPNIYFLIQKMFYMLNTLTSNMSQLHSKVDLLSLEVSRIKKQVSPTEMVAKFQPPPEYQLTAAELKQIVDQSLSGGDLACRLLVQLFPELFSDVDFSRGCSACGFAAKRKLESLHLQLIRNYVEVYYPSVKDTAVWQAECLPQLNDFFSRFWAQREMEDSQPSGQVASFFEAEQVDPGHFLDNKDQEEALSLDRSSTIASDHVVDTQDLTEFLDEASSPGEFAVFLLHRLFPELFDHRKLGEQYSCYGDGGKQELDPQRLQIIRNYTEIYFPDMQEEEAWLQQCAQRINDELEGLGLDAGSEGDPPRDDCYDSSSLPDDISVVKVEDSFEGERPGRRSKKIWLVPIDFDKLEIPQPDFEVPGADCLLSKEQLRSIYESSLSIGNFASRLLVHLFPELFTHENLRKQYNCSGSLGKKQLDPSRIKLIRHYVQLLYPRAKNDRVWTLEFVGKLDERCRRRDTEQRRSYQQQRKVHVPGPECRDLTSYAINPERFREEFEGPPLPPERSSKDFCKIPLDELVVPSPDFPVPSPYLLSDKEVREIVQQSLSVGNFAARLLVRLFPELFTAENLRLQYNHSGACNKKQLDPTRLRLIRHYVEAVYPVEKMEEVWHYECIPSIDERCRRPNRKKCDILKKAKKVEK
B4: N-terminal TPR motif of PICH (domain or fragment, human)
chain: AEALSPEQAAHYLRYVKEAKEATKNGDLEEAFKLFNLAKDIFPNEKVLSRIQKIQEA
B5: BEN domain 1 of BEND3 (domain or fragment, human)
chain: MVAKFQPPPEYQLTAAELKQIVDQSLSGGDLACRLLVQLFPELFSDVDFSRGCSACGFAAKRKLESLHLQLIRNYVEVYYPSVKDTAVWQAECLPQLNDFFSRFWAQREMED

Legend:
SEC + native gel or EMSA = target: the molecule itself; test: SEC + native gel or EMSA
[1] = target: T1, catalytic SNF2/HELIC region of PICH (human); test: MST
T1 sequence (Q2NKX8 whole entry, looked up): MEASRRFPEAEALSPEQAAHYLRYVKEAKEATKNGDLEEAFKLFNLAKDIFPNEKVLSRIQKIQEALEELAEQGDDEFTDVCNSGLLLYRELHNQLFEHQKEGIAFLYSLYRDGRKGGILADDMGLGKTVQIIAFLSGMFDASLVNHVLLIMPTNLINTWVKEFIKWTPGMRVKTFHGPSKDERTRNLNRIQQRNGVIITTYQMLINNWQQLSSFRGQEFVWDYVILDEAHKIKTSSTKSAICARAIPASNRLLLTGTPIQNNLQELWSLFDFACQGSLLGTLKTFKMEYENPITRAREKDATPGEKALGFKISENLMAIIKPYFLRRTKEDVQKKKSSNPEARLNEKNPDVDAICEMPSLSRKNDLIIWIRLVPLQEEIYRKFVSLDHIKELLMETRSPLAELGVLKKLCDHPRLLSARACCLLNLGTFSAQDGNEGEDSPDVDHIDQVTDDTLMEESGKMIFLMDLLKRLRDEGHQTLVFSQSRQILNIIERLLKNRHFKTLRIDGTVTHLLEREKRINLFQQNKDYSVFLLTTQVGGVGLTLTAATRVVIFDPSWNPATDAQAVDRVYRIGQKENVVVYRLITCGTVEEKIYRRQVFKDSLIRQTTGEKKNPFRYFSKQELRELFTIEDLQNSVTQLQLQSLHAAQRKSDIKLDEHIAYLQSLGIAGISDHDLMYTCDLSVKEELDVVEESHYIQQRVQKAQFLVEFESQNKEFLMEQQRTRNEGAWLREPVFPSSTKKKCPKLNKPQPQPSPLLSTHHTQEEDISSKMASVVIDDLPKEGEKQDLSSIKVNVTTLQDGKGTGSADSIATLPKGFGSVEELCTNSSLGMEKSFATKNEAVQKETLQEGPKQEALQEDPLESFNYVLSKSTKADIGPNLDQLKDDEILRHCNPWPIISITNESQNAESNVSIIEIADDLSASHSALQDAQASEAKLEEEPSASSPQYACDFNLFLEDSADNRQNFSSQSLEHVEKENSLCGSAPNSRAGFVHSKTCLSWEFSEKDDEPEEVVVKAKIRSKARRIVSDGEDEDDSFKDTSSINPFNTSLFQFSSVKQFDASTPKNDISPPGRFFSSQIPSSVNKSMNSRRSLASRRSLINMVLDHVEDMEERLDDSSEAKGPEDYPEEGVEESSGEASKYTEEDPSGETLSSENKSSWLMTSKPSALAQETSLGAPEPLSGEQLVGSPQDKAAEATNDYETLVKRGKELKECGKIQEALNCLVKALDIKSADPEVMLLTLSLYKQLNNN

[2] = target: T2, PICH, full length (recombinant) (human, UniProt Q2NKX8 1-1250); test: SPR
T2 sequence (looked up): T1 sequence (Q2NKX8 whole entry, looked up)

BEN domain 1 of BEND3 = target: B5; test: MST
[3] = target: T2, PICH, full length (recombinant); test: MST

B1
binding result (SEC + native gel or EMSA): binds

B2
Kd [1]: 1500 nM

B3
Kd [2]: 700 ± 300 nM
stoichiometry N (SEC + native gel or EMSA): 8

B4
Kd (BEN domain 1 of BEND3): 1200 ± 250 nM

B5
Kd [3]: 200 ± 250 nM
